# B1: LK-RB1-34 (antibody, human IgG4 S228P, kappa, V domains shown)
# VH: QVQLQQSGAELVKPGASVKLSCKASGYTFTEYTIHWVKQRSGQGLEWIGWFYPGSDSIKYNEKFKDKATLTADKSSSTVYMELSRLTSEDSAVYFCSRHEGPYFTSQYYFDYWGQGTTLTVSS
# VL: DILLTQSPAILSVSPGERVSFSCRASRYIGTSIHWYQQRTNGSPRLLIKYASESISGIPSRFSGSGSGTDFTLSINSVESEDIADYYCQQSNTWPLTFGAGTKLELKR
# B2: LK-RB1-26 (antibody, human IgG4 S228P, kappa, V domains shown)
# VH: QVQLKESGPGLVAPSQSLSITCTVSGFSLTSYGVSWVRQPPGKGLEWLGIIWGDGSTNYHSALISRLSISKDNSKSQVFLKLNSLQTDDTATYYCAKPNWDYYAMDYWGQGTSVTVSS
# VL: DIQMTQTTSSLSASLGDRVTISCRASQDISNFLNWYQQKPDGTFKLLISYTSTLHSGVPSRFSGSGSGTDYSLTISNLEQEDVATYFCQQGNTLPLTFGAGTKLALKR
# B3: LK-RB1-29 (antibody, human IgG4 S228P, kappa, V domains shown)
# VH: QVQLKESGPGLVAPSQNLAITCTVSGFSLTNSGVSWVRQSPGKGLEWLGIIWGDGNTNYHSALISRLSISKDNSKSQVFLKLNSLQTDDTGTYYCAKPNWDYYALDYWGQGTSVTVSS
# VL: DIQMTQTASSLFASLGDRVTISCRASQDISNYLNWYQQKPDGSIKLLISYTSRLHSGVPSRFSGSGSGTDYSLSISNLEQEDIATYFCQQGISLPCTFGGGTKLEVNR
# B4: LK-RB1-30 (antibody, human IgG4 S228P, kappa, V domains shown)
# VH: QVQLKESGPGLVAPSQSLSITCTVSGFSLTSYGVSWIRQPPGKGLEWLGVIWGDGNTNYHSALISRLSISKDNSKSQVFLKLNSLQTDDTATYYCAKPSWDYYAMDYWGQGTSVTVSS
# VL: VIQMTQTTSSLSASLGDRVTISCRASQDISNYVNWYQQRPDGTVKLLISYTSRLHSGVPSRFSGSGSGTDYSLTITNLEQEDIATYFCQQGITLPCTFGGGTKLEINR
# B5: LK-RB1-55 (antibody, human IgG4 S228P, kappa, V domains shown)
# VH: EVKLVESGGGLVQPGGSLKLSCAASGFTFSDYYMYWVRQTPEKRLEWVAYISNGGDITFYPDTVKGRFTISRDNARSTLYLQMSRLKSEDTAIYYCASATTEVGAMDHWGQGTSVTVSS
# VL: DIVMTQSQKFMSTTVGDRVSITCKASQNVGTAVAWYQQKPGKSPKLLIYAASNRYTGVPDRFTGSGSGTDFTLTISNMQSEDLADYFCQQYSSYRTFGGGTNLEIKR
# B6: LK-RB1-48 (antibody, human IgG4 S228P, kappa, V domains shown)
# VH: EVKLVESGGGLVQPGGSLKLSCAASGFTFSDYYMYWVRQTPEKRLEWVAYISNGGGISFYPDTVKGRFTISRDNAKNTLYLQMSRLKSEDTAIYYCASATKEVGAMDYWGQGTSVTVSS
# VL: DIVMTQSQKFLSTTVGDRVSITCKASQNVGTAVAWYQQKPGQSPKILIYSASNRYTGVPDRFTGSGSGTDFTLTISNMQSEDLADYFCQQYSSYRTFGGGTKLEIKR
# B7: LK-RB1-27 (antibody, human IgG4 S228P, kappa, V domains shown)
# VH: QVQLQQSGPELVKPGASVRMSCKASGYTFTSHYIHWMKQRPGQGLEWIGWIYPGDGHTKYHEKFKDRATLTADTSSITAYMRLSSLTSEDSAIYYCVYYSDSWFPYWGQGTLVTVSA
# VL: DIQMTQSPASLSVSVGETVTITCRASENIYSNLAWYQQKQGKSPHLLVYAATNLADGVPSRFSGSGSGTQYSLKINSLQSEDFGNYYCQHFWGSPWTFGGGTKLEIKR
# B8: LK-RB1-47 (antibody, human IgG4 S228P, kappa, V domains shown)
# VH: QIQLVQSGPELKKPGETVKISCKASGYTFTTYGMSWVKQAPGKGLKWMGWINTYSGVPTYTDDFKGRFAFSVETSASTAYLQINNLKNEDTATYFCARRERDFYGNIFFPYWGQGSLVTVSA
# VL: DIQMTQTTSSLSASLGDRVTISCRASQDISNYLNWYQQKPDGTVKLLIYYTSRIHSGVPSRFSGSGSGTDFSLTISNLDQEDIATYFCQQGHTLPWTFGGGTKVEIKR
# B9: LK-RB1-25 (antibody, human IgG4 S228P, kappa, V domains shown)
# VH: QIQLVQSGPELKKPGETVKISCKASGYTFTSYGMNWMKQAPGEGLKWMGWINTYSGVPTYADDFKGRFAFSLETSATTVYLQINNLKNEDKATYFCARRGRDSVVGHFDVWGTGTTVTVSS
# VL: DIVMTQSHKFMSTSVGDRVSITCKASQDVNTAVAWYQQKPGQSPKLLIYWASTRHTGVPDRFTGSGSGTDFTLTISSVQAEDLALYYCQQHYTIPFTFGSGTKLEIKR
# B10: LK-RB1-33 (antibody, human IgG4 S228P, kappa, V domains shown)
# VH: QIQLVQSGPELKKPGDTVKISCKASGYTFTSYGMNWVKQAPGEGLKWMGWINTYSGVPTYGDDFKGRFAFSLETSASTAYLQINNLENEDTATYFCARRGRDSVVGHFDVWGTGTTVTVSS
# VL: DIVMTQSHKFMSTSVGDRVSITCKASQDVNTAVAWYQQKPGQSPKLLIYWASTRHTGVPDRFTGSGSGTDFTLTISSVQAEDLALYYCQQHYTIPFTFGSGTRLEIKR
# B11: LK-RB1-24 (antibody, human IgG4 S228P, kappa, V domains shown)
# VH: QVQLQQPGAELVNPGTSVNLSCKASGYTFTGYWMHWVKQRPGQGLEWIGMIHPNNGGTIYNERFNGKATLTVDRSSTTAYIQLSSLTSEDSAVYYCAYWDLDYWGQGTTLTVSS
# VL: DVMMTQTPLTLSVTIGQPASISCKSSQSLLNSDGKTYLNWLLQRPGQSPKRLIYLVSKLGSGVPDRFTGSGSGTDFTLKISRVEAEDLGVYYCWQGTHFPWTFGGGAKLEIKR
# B12: LK-RB1-42 (antibody, human IgG4 S228P, kappa, V domains shown)
# VH: QVQLQQPGAELVKPGTSVKLSCKASGYSFISYWVYWVKQRPGQGLEWIGMIHPNSGSTNFNEKFRYKATLTVDKSSSTAYIQLSSLTSEDSAVYYCGRSDDGYPYHAMDSWGQGTSVTVSS
# VL: DIVMTQSQKFMSTSVGDRVSVTCKASQNVGTNVAWYQQKPGQSPKALIYSASYRFSGVPDRFTGSGSGTDFTLTIGNVQSEDLAEYFCHQYKNYPLTFGGGTKLEIKR
# B13: LK-RB1-39 (antibody, human IgG4 S228P, kappa, V domains shown)
# VH: EVQLQQSGAELVRPGASVKLSCTASGFNIKDDYVHWVNQRPEQGLEWIGWIDPENGDTGYASKFQDKATITADTSSNTAYLHLSSLTSEDTAVYYCTTTRWTGSYWGQGTTLTVSS
# VL: QIVLTQSPAIMSASPGEKVTITCSASSSVNYMHWFQQKPGSSPKLWIYSTANLASGVPARFSGSGSGTSYSLTISRMEAEDAATYYCQQRSSYPPTWTFGGGTKLEIKR
# Columns and labels:
# [1] = molecular target: T1, human LILRB1 on CHOK1 cells (human, UniProt Q8NHL6 24-650); experiment: cell-based RBA (FACS): blocking of HLA-G binding to CHOK1-hLILRB1 cells
# T1 construct: whole, on cells; also called CHOK1-hLILRB1; CHOK1-LILRB1
# [2] = molecular target: T1, human LILRB1 on CHOK1 cells; experiment: FACS binding, CHOK1-hLILRB1 cells
# [3] = molecular target: T2, human LILRB2 on CHOK1 cells (human, UniProt Q8N423 22-597); experiment: FACS binding, CHOK1-hLILRB2 cells
# T2 construct: whole, on cells; also called CHOK1-hLILRB2; CHOK1-LILRB2
# T2 sequence (Q8N423 22-597): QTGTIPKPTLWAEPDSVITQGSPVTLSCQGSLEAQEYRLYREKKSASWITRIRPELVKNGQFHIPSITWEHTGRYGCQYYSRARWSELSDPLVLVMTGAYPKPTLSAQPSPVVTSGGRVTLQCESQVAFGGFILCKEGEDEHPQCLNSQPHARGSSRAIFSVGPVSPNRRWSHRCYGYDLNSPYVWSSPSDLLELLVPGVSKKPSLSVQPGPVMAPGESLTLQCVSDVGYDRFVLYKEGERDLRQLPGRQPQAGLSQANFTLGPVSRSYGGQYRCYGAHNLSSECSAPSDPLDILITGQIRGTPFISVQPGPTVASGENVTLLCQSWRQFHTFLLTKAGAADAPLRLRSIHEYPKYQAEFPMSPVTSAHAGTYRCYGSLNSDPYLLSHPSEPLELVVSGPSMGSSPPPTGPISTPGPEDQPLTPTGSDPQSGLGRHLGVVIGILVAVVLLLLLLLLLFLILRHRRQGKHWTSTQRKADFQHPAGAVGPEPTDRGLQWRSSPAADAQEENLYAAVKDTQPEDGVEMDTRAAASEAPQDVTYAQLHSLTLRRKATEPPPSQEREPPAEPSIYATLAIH
# T1 sequence (Q8NHL6 24-650): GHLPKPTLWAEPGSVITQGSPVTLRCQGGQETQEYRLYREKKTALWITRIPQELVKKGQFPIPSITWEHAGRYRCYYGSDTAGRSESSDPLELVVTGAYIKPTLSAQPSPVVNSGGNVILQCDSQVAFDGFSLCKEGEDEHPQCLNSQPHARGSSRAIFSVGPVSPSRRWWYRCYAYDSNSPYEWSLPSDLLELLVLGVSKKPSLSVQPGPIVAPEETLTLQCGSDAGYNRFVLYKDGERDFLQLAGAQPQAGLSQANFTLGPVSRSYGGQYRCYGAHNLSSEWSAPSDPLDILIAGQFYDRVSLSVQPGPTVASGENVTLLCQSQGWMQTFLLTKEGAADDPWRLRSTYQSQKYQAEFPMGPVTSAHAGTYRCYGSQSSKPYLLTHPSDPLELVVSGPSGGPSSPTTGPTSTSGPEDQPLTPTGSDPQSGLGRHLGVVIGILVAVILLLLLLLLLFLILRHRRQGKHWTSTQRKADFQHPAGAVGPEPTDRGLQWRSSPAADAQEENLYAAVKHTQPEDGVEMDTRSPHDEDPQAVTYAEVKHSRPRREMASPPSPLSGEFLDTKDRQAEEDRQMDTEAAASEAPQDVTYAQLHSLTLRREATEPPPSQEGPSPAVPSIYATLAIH
Binder,EC50 [1] [nM],Top Inhibition (%) [1] [%],EC50 [2] [nM],binding result [3],EC50 [3] [nM]
B1,3.69,21.7,1.56,no binding,
B2,0.69,99.6,0.51,no binding,
B3,2.93,93.3,2.38,no binding,
B4,0.7,95.6,1.06,no binding,
B5,1.26,92.6,1.68,no binding,
B6,1,86.7,1.06,no binding,
B7,0.9,98.7,0.71,,4.95
B8,1.59,99,1.13,no binding,
B9,0.62,98.1,1.07,no binding,
B10,1.38,92.7,1.13,no binding,
B11,9.07,64.8,1.48,,1.04
B12,4.5,62.2,0.89,no binding,
B13,0.68,95.7,0.77,,0.17
